Measured values from paper PMC8787476.

Target: PERV TM_(493–587) (tag intact) (porcine endogenous retrovirus A (PERV-A))
Test: SEC; Superdex 75 10/300 GL in 10 mM Tris-HCl, pH 7.5, 150 mM NaCl; calibrated with protein standards (Kav curve); apparent MW ~43 kDa against theoretical trimeric MW 39.9 kDa

PERV TM_(493–587) (tag intact) (domain or fragment)
stoichiometry N: 3
